# Measured values published in patent US20190134153A1, “IMMUNOMODULATORY EFFECT OF INHALED KINASE INHIBITOR PEPTIDES IN LUNG” (MOERAE MATRIX, INC., priority 2017, published 2019).
# What was measured:
# Assay in all cases: Kinase Profiling Assay
# Conditions in all cases: 100 μM
# [1] = target: DAPK1(h) (Homo sapiens, UniProt P53355); type: biochemical
# [2] = target: T1, DCAMKL2(h) (Homo sapiens, UniProt Q8N568); type: biochemical
# T1 sequence (Q8N568 1-766): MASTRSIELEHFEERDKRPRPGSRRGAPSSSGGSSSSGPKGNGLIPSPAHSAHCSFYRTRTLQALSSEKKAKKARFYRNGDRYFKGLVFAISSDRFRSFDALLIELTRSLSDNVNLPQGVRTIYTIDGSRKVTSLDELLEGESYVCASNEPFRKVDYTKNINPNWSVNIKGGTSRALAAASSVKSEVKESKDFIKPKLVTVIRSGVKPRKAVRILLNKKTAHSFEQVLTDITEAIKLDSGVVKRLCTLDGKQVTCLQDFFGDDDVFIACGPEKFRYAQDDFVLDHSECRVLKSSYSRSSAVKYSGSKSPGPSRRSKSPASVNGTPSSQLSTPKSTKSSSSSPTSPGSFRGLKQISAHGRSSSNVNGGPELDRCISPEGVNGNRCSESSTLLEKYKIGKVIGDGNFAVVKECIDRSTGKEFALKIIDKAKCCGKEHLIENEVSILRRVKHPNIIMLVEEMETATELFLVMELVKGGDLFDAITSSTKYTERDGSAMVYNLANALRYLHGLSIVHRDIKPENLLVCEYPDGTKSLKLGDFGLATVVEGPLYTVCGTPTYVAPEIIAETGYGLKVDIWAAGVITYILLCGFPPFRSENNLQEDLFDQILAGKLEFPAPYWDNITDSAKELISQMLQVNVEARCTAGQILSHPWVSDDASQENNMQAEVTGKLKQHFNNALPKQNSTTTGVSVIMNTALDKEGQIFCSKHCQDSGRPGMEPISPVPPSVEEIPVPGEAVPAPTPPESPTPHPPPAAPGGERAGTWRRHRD
# [3] = target: T2, Haspin(h) (Homo sapiens, UniProt Q8TF76); type: biochemical
# T2 sequence (Q8TF76 1-798): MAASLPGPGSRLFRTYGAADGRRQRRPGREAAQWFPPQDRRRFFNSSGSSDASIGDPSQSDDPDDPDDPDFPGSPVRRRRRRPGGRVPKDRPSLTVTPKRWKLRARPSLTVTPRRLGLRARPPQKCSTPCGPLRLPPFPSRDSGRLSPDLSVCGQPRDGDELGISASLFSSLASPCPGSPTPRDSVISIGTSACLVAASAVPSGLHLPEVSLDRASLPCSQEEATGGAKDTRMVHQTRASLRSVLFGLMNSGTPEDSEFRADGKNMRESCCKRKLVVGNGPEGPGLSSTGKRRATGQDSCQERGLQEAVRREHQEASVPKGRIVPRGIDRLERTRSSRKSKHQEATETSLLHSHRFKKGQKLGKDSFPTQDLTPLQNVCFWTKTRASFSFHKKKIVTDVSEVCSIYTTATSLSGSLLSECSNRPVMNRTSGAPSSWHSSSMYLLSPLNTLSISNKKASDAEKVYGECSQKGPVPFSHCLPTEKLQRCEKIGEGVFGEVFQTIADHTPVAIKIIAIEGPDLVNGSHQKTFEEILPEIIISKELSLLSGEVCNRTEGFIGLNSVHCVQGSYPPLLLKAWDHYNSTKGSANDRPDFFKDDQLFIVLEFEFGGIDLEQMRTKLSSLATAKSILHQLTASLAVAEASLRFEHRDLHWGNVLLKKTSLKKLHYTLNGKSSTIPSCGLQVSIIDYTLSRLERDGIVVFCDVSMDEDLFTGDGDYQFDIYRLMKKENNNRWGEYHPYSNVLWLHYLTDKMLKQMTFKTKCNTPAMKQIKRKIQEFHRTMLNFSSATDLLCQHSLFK
# [4] = target: IR(h), activated (Homo sapiens, UniProt P06213); type: biochemical
# [5] = target: IRAK1(h) (Homo sapiens, UniProt P51617); type: biochemical
# Sequence of IRAK1(h) (P51617 whole entry): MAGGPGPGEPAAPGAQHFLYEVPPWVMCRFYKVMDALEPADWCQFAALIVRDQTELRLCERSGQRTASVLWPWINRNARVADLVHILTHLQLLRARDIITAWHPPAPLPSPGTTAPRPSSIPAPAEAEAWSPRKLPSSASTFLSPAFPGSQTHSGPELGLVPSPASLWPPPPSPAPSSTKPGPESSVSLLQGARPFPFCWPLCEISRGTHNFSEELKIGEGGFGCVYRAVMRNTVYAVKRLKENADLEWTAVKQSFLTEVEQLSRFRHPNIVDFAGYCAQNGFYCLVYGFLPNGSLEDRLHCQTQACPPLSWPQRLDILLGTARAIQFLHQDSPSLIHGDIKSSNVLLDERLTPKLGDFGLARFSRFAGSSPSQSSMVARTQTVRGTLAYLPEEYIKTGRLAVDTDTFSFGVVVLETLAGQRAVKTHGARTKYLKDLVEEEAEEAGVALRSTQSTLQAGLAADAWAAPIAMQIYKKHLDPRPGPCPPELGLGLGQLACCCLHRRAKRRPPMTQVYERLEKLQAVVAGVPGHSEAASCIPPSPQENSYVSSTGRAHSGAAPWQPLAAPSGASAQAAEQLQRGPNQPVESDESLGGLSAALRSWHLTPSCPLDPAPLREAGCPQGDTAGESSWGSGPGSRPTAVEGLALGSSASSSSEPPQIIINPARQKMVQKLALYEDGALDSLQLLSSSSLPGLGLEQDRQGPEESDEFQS
# [6] = target: Met(M1268T)(h) (Homo sapiens, UniProt P08581, M1250T); type: biochemical
# [7] = test system: MLCK(h); type: biochemical, human
# [8] = target: MST3(h) (Homo sapiens, UniProt Q9Y6E0); type: biochemical
# Sequence of MST3(h) (Q9Y6E0 whole entry): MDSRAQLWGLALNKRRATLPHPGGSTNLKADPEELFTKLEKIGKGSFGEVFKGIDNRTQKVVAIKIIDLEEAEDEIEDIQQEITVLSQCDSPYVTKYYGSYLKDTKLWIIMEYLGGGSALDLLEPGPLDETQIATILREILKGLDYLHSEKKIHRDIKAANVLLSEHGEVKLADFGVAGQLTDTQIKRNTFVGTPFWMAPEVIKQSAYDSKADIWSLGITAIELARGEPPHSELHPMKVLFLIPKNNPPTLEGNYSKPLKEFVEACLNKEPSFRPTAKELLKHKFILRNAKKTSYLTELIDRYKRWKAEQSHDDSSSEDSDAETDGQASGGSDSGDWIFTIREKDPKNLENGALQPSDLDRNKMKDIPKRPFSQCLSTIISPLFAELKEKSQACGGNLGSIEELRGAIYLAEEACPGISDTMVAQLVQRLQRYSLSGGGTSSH
# [9] = target: Pim-1(h) (Homo sapiens, UniProt P11309); type: biochemical
# Sequence of Pim-1(h) (P11309 whole entry): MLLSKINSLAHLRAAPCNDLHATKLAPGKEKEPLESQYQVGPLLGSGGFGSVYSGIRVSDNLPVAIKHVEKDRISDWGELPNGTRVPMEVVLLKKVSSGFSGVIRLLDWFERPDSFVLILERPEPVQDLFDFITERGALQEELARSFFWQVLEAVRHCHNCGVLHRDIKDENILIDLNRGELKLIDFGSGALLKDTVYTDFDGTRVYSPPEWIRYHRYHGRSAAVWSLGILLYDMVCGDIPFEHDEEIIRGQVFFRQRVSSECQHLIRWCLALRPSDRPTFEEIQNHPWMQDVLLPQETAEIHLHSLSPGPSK
# [10] = target: Pyk2(h) (Homo sapiens, UniProt Q14289); type: biochemical
# Sequence of Pyk2(h) (Q14289 whole entry): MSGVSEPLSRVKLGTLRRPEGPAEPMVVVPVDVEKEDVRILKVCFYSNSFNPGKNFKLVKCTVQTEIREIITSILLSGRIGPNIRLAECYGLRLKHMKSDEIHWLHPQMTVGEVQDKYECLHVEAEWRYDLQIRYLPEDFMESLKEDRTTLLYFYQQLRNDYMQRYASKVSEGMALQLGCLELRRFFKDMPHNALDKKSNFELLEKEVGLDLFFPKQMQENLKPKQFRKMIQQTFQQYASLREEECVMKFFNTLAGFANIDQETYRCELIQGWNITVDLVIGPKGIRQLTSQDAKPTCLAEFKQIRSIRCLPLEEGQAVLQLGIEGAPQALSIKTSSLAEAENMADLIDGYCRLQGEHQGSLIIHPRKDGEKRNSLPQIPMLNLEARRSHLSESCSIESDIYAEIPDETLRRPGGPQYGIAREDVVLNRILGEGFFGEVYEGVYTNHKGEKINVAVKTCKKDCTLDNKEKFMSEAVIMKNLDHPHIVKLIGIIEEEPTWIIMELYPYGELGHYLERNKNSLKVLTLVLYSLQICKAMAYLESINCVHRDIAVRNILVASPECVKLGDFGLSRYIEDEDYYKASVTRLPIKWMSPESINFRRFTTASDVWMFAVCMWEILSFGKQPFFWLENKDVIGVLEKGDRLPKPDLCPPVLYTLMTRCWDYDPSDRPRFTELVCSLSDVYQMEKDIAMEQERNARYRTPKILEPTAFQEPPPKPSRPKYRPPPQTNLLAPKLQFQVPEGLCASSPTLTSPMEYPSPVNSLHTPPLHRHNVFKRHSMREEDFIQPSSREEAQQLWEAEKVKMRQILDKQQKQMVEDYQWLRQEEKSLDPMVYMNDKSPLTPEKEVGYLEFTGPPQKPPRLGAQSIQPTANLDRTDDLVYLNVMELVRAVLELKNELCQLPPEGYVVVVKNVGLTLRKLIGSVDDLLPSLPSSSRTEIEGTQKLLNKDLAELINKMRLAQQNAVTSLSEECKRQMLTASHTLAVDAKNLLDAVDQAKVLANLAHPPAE
# [11] = target: T3, SGK2(h) (Homo sapiens, UniProt Q9HBY8); type: biochemical
# T3 sequence (Q9HBY8 1-367): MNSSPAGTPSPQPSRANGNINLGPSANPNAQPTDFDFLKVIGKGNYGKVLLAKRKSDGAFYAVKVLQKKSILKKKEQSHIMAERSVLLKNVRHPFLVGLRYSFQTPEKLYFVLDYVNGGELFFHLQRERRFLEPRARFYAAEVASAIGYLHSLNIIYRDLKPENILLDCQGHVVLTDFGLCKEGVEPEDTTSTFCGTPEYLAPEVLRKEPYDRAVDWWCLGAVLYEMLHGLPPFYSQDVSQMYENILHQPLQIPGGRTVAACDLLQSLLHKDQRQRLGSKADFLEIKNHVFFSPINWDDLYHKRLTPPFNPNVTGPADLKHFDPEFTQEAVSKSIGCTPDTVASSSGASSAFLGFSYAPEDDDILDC
# [12] = target: Syk(h) (Homo sapiens, UniProt P43405); type: biochemical
# [13] = target: ZIPK(h) (Homo sapiens, UniProt O43293); type: biochemical
# Sequence of ZIPK(h) (O43293 whole entry): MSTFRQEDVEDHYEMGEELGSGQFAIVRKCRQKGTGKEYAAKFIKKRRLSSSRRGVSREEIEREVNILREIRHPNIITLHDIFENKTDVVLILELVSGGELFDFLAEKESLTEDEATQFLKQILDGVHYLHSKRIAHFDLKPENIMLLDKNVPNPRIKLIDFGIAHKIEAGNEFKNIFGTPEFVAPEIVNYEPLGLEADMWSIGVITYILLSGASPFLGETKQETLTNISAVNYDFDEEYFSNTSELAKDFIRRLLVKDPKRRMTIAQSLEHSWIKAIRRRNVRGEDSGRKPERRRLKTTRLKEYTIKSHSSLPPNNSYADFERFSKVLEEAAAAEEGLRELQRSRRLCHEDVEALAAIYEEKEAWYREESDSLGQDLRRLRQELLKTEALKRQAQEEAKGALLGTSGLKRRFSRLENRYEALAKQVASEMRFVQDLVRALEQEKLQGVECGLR
# Sequence of DAPK1(h) (P53355 whole entry): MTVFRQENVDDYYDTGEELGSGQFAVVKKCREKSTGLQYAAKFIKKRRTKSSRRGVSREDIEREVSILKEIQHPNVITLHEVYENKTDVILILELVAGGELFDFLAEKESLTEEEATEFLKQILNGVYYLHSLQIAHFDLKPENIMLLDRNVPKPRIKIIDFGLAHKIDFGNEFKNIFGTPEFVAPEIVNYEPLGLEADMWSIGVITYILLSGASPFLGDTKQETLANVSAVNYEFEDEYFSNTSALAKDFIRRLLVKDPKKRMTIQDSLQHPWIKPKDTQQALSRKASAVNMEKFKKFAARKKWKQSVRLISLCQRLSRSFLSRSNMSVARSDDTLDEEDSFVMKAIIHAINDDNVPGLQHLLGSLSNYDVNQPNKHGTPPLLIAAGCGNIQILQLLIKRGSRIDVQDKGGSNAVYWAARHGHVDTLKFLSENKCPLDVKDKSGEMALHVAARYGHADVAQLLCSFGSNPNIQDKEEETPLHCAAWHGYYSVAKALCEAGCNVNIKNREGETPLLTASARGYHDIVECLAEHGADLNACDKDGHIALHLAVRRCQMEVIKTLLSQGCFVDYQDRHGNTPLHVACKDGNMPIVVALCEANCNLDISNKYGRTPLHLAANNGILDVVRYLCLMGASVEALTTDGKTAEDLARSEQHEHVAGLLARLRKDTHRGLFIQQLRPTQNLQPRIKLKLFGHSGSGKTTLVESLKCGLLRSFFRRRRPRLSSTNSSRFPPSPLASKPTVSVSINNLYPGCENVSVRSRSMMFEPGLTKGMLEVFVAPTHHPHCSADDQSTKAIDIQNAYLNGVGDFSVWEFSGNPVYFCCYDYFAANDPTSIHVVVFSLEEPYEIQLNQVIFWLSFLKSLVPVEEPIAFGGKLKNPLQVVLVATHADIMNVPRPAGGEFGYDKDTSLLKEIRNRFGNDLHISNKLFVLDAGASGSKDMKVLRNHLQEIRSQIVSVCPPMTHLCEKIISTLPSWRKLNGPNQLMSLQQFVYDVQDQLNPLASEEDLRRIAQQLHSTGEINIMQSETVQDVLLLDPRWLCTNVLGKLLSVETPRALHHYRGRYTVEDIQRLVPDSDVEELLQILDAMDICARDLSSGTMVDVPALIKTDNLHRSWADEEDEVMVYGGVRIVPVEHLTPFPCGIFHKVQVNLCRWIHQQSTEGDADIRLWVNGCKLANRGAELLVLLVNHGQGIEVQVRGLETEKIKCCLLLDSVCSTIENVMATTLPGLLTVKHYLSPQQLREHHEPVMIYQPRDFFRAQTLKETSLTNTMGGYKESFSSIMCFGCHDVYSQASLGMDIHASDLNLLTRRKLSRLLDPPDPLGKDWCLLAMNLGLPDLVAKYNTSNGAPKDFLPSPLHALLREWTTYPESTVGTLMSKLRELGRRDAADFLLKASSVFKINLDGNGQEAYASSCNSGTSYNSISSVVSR
Sequence,% activity [1],% activity [2],% activity [3],% activity [4],% activity [5],% activity [6],% activity [7],% activity [8],% activity [9],% activity [10],% activity [11],% activity [12],% activity [13]
FAKLAARLYRKALARQLGVAA [MMI-0300],46%,81%,48%,79%,95%,255%,2%,45%,8%,47%,56%,24%,28%
HRRIKAWLKKIKALARQLGVAA [MMI-0500],0%,56%,25%,90%,5%,239%,0%,4%,0%,46%,−1%,5%,1%
KAFAKLAARLYRKALARQLGVAA [MMI-0400],36%,70%,36%,59%,93%,265%,1%,36%,7%,34%,98%,9%,13%
YARAAARQARAKALNRQLGVA [MMI-0200],,131%,71%,,101%,143%,103%,95%,18%,127%,,36%,67%
